Reference: patent publication US20200071378A1

Assays:
[1] = target: murine VISTA expressed on EL4 cells (EL4-mVISTA) (murine) (UniProt Q9D659); experiment: flow cytometry on EL4-mVISTA cells
[2] = target: murine OX40 expressed on cells (CHOK1-mOX40) (murine) (UniProt P47741); experiment: flow cytometry on CHOK1-mOX40 cells
hOX40-His (human) = hOX40-His (human) (UniProt P43489); experiment: SPR (BioRad ProteOn XPR 360) per Example 5; FIG. 5 legend says biolayer interferometry (Octet); hOX40-His as ligand, analyte at 66.7 nM
Sequence of hOX40-His (human) (P43489 29-216 limits assumed): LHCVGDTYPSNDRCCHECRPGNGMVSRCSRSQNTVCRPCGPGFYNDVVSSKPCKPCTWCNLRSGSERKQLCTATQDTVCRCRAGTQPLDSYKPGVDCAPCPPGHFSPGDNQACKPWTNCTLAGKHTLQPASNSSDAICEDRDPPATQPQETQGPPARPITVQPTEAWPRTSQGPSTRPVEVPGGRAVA

Sequence of murine OX40 expressed on cells (CHOK1-mOX40) (murine) (P47741 20-272): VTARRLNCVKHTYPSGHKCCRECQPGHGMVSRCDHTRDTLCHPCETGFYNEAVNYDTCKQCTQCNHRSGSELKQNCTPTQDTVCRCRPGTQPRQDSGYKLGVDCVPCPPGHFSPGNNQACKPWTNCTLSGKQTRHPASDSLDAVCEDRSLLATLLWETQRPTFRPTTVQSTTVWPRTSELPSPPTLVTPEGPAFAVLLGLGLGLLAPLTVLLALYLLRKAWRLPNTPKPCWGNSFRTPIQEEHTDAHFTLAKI
Sequence of murine VISTA expressed on EL4 cells (EL4-mVISTA) (murine) (Q9D659 33-308): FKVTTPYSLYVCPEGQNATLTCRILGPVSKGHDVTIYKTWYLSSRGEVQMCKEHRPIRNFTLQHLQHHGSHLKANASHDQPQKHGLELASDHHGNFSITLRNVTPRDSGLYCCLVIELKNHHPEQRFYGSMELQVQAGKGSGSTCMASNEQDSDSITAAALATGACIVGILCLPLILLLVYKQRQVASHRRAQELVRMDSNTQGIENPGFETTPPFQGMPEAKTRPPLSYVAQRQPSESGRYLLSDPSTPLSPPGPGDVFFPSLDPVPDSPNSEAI

murine VSIG8-Fc-OX40L chimeric protein (from UniProt Q6P3A4 22-262; P43488 51-198) (Fc fusion)
EC50 [1]: 56 nM | EC50 [2]: 16 nM

tavolixumab (an anti-human OX40 antibody)
Kd (hOX40-His (human)): 0.152 nM | koff (hOX40-His (human)): 5.03e-05 s⁻¹ | kon (hOX40-His (human)): 332000 M⁻¹ s⁻¹
